# Values quoted from earlier work, collected in patent US9737089B2, “Milk-based nutritional compositions containing lactoferrin and uses thereof” (Mead Johnson Nutrition Company, priority 2012, dated 2017).
# B1: human lactoferrin: iron-binding glycoprotein, one of the major multifunctional agents present in human milk (protein, UniProt P02788 20-710, looked up)
# Lactotransferrin: GRRRSVQWCAVSQPEATKCFQWQRNMRKVRGPPVSCIKRDSPIQCIQAIAENRADAVTLDGGFIYEAGLAPYKLRPVAAEVYGTERQPRTHYYAVAVVKKGGSFQLNELQGLKSCHTGLRRTAGWNVPIGTLRPFLNWTGPPEPIEAAVARFFSASCVPGADKGQFPNLCRLCAGTGENKCAFSSQEPYFSYSGAFKCLRDGAGDVAFIRESTVFEDLSDEAERDEYELLCPDNTRKPVDKFKDCHLARVPSHAVVARSVNGKEDAIWNLLRQAQEKFGKDKSPKFQLFGSPSGQKDLLFKDSAIGFSRVPPRIDSGLYLGSGYFTAIQNLRKSEEEVAARRARVVWCAVGEQELRKCNQWSGLSEGSVTCSSASTTEDCIALVLKGEADAMSLDGGYVYTAGKCGLVPVLAENYKSQQSSDPDPNCVDRPVEGYLAVAVVRRSDTSLTWNSVKGKKSCHTAVDRTAGWNIPMGLLFNQTGSCKFDEYFSQSCAPGSDPRSNLCALCIGDEQGENKCVPNSNERYYGYTGAFRCLAENAGDVAFVKDVTVLQNTDGNNNEAWAKDLKLADFALLCLDGKRKPVTEARSCHLAMAPNHAVVSRMDKVERLKQVLLHQQAKFGRNGSDCPDKFCLFQSETKNLLFNDNTECLARLHGKTTYEKYLGPQYVAGITNLKKCSTSPLLEACEFLRK
# System: EPEC adhesion to HeLa cells
# Conditions: Nascimento de Arujao et al., BMC Microbiol. 1:25 (2001)
molecule,measurement,value
B1,inhibition of adhesion of EPEC to HeLa cells,can inhibit the adhesion
